Measured values reported in the supplement of paper PMC5998384.

Columns and labels:
[1] = test system: HeLa Kyoto; test: thermal stability score vs G1/S (z-score of summed log2 fold changes over temperatures); higher = more thermally stable than in G1/S
[2] = test system: HeLa Kyoto; test: melting temperature (median over replicates), in situ; higher = more thermally stable
[3] = test system: HeLa Kyoto; test: solubility in G1/S (NP-40 vs SDS abundance) (log2 ratio); higher = more soluble; details: cell cycle stage: G1/S
[4] = test system: HeLa Kyoto; test: solubility change mitosis vs G1/S (difference of NP-40 vs SDS log2 ratios) (log2 ratio difference); higher = more soluble in mitosis
[5] = cell cycle stage: early G1 (4.5 h after nocodazole release)
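For melting temperature (median over replicates), in situ in this document: HeLa Kyoto cells synchronized by double thymidine or nocodazole block, proteins quantified by TMT10plex mass spectrometry, three independent biological replicates.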
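For solubility change mitosis vs G1/S (difference of NP-40 vs SDS log2 ratios) in this document: synchronized HeLa Kyoto cells (double thymidine block for G1/S, nocodazole release for mitosis), protein amounts in NP-40 versus SDS lysates quantified by mass spectrometry, three biological replicates.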
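For solubility in G1/S (NP-40 vs SDS abundance) in this document: HeLa Kyoto cells arrested at G1/S by double thymidine block, proteins quantified by TMT10plex mass spectrometry in mild NP-40 versus SDS extracts, three biological replicates.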
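For thermal stability score vs G1/S (z-score of summed log2 fold changes over temperatures) in this document: synchronized HeLa Kyoto cells, proteins quantified by TMT10plex mass spectrometry, three biological replicates, mitosis taken 0.5 h after nocodazole release, G1/S directly after double thymidine block.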

| Sequence | thermal stability score [1, 5] | thermal stability score ([1]; cell cycle stage: mitosis) | melting temperature ([2]; cell cycle stage: G1/S) [°C] | melting temperature ([2]; cell cycle stage: mitosis) [°C] | solubility in G1/S (log2) [3] | solubility change mitosis (log2) [4] |
| --- | --- | --- | --- | --- | --- | --- |
| MTSAAPAKKPYRKAPPEHRELRLEIPGSRLEQEEPLTDAERMKLLQEENEELRRRLASATRRTEALERELEIGQDCLELELGQSREELDKFKDKFRRLQNSYTASQRTNQELEDKLHTLASLSHSWIFAIKKAEMDRKTLDWEIVELTNKLLDAKNTINKLEELNERYRLDCNLAVQLLKCNKSHFRNHKFADLPCELQDMVRKHLHSGQEAASPGPAPSLAPGAVVPTSVIARVLEKPESLLLNSAQSGSAGRPLAEDVFVHVDMSEGVPGDPASPPAPGSPTPQPNGECHSLGTARGSPEEELPLPAFEKLNPYPTPSPPHPLYPGRRVIEFSEDKVRIPRNSPLPNCTYATRQAISLSLVEEGSERARPSPVPSTPASAQASPHHQPSPAPLTLSAPASSASSEEDLLVSWQRAFVDRTPPPAAVAQRTAFGRDALPELQRHFAHSPADRDEVVQAPSARPEESELLLPTEPDSGFPREEEELNLPISPEEERQSLLPINRGTEEGPGTSHTEGRAWPLPSSSRPQRSPKRMGVHHLHRKDSLTQAQEQGNLLN [TJAP1] | 1.77 | 3.57 | 51.1 | 51.7 | 0.288 | -0.036 |
| MTSIIKLTTLSGVQEESALCYLLQVDEFRFLLDCGWDEHFSMDIIDSLRKHVHQIDAVLLSHPDPLHLGALPYAVGKLGLNCAIYATIPVYKMGQMFMYDLYQSRHNTEDFTLFTLDDVDAAFDKIQQLKFSQIVNLKGKGHGLSITPLPAGHMIGGTIWKIVKDGEEEIVYAVDFNHKREIHLNGCSLEMLSRPSLLITDSFNATYVQPRRKQRDEQLLTNVLETLRGDGNVLIAVDTAGRVLELAQLLDQIWRTKDAGLGVYSLALLNNVSYNVVEFSKSQVEWMSDKLMRCFEDKRNNPFQFRHLSLCHGLSDLARVPSPKVVLASQPDLECGFSRDLFIQWCQDPKNSIILTYRTTPGTLARFLIDNPSEKITEIELRKRVKLEGKELEEYLEKEKLKKEAAKKLEQSKEADIDSSDESDIEEDIDQPSAHKTKHDLMMKGEGSRKGSFFKQAKKSYPMFPAPEERIKWDEYGEIIKPEDFLVPELQATEEEKSKLESGLTNGDEPMDQDLSDVPTKCISTTESIEIKARVTYIDYEGRSDGDSIKKIINQMKPRQLIIVHGPPEASQDLAECCRAFGGKDIKVYMPKLHETVDATSETHIYQVRLKDSLVSSLQFCKAKDAELAWIDGVLDMRVSKVDTGVILEEGELKDDGEDSEMQVEAPSDSSVIAQQKAMKSLFGDDEKETGEESEIIPTLEPLPPHEVPGHQSVFMNEPRLSDFKQVLLREGIQAEFVGGVLVCNNQVAVRRTETGRIGLEGCLCQDFYRIRDLLYEQYAIV [CPSF2] | -0.0481 | 1.62 | 48.7 | 50.3 | -0.409 | 0.0805 |
| MTSLTQRSSGLVQRRTEASRNAADKERAAGGGAGSSEDDAQSRRDEQDDDDKGDSKETRLTLMEEVLLLGLKDREGYTSFWNDCISSGLRGCMLIELALRGRLQLEACGMRRKSLLTRKVICKSDAPTGDVLLDEALKHVKETQPPETVQNWIELLSGETWNPLKLHYQLRNVRERLAKNLVEKGVLTTEKQNFLLFDMTTHPLTNNNIKQRLIKKVQEAVLDKWVNDPHRMDRRLLALIYLAHASDVLENAFAPLLDEQYDLATKRVRQLLDLDPEVECLKANTNEVLWAVVAAFTK [GOLPH3] | 0.551 | -0.641 | 51.9 | 51.5 | 0.434 | -0.137 |
| MTSMASLFSFTSPAVKRLLGWKQGDEEEKWAEKAVDALVKKLKKKKGAMEELEKALSSPGQPSKCVTIPRSLDGRLQVSHRKGLPHVIYCRVWRWPDLQSHHELKPLDICEFPFGSKQKEVCINPYHYKRVESPVLPPVLVPRHNEFNPQHSLLVQFRNLSHNEPHMPQNATFPDSFHQPNNTPFPLSPNSPYPPSPASSTYPNSPASSGPGSPFQLPADTPPPAYMPPDDQMGQDNSQPMDTSNNMIPQIMPSISSRDVQPVAYEEPKHWCSIVYYELNNRVGEAFHASSTSVLVDGFTDPSNNKSRFCLGLLSNVNRNSTIENTRRHIGKGVHLYYVGGEVYAECLSDSSIFVQSRNCNFHHGFHPTTVCKIPSSCSLKIFNNQEFAQLLAQSVNHGFEAVYELTKMCTIRMSFVKGWGAEYHRQDVTSTPCWIEIHLHGPLQWLDKVLTQMGSPLNPISSVS [SMAD5] | 0.616 | 0.53 | 50.3 | 50 | -0.0752 | -0.0922 |
| MTSMTQSLREVIKAMTKARNFERVLGKITLVSAAPGKVICEMKVEEEHTNAIGTLHGGLTATLVDNISTMALLCTERGAPGVSVDMNITYMSPAKLGEDIVITAHVLKQGKTLAFTSVDLTNKATGKLIAQGRHTKHLGN [ACOT13] | -1.62 | -1.82 | 56.4 | 57.7 | 0.372 | -0.0848 |
| MTSPAAAQSREIDCLSPEAQKLAEARLAAKRAARAEAREIRMKELERQQKEEDSERYSRRSRRNTSASDEDERMSVGSRGSLRVEERPEKDFTEKGSRNMPGLSAATLASLGGTSSRRGSGDTSISIDTEASIREIKELNELKDQIQDVEGKYMQGLKEMKDSLAEVEEKYKKAMVSNAQLDNEKTNFMYQVDTLKDMLLELEEQLAESRRQYEEKNKEFEREKHAHSILQFQFAEVKEALKQREEMLEKHGIILNSEIATNGETSDTLNNVGYQGPTKMTKEELNALKSTGDGTLGRASEVEVKNEIVANVGKREILHNTEKEQHTEDTVKDCVDIEVFPAGENTEDQKSSEDTAPFLGTLAGATYEEQVQSQILESSSLPENTVQVESNEVMGAPDDRTRTPLEPSNCWSDLDGGNHTENVGEAAVTQVEEQAGTVASCPLGHSDDTVYHDDKCMVEVPQELETSTGHSLEKEFTNQEAAEPKEVPAHSTEVGRDHNEEEGEETGLRDEKPIKTEVPGSPAGTEGNCQEATGPSTVDTQNEPLDMKEPDEEKSDQQGEALDSSQKKTKNKKKKNKKKKSPVPVETLKDVKKELTYQNTDLSEIKEEEQVKSTDRKSAVEAQNEVTENPKQKIAAESSENVDCPENPKIKLDGKLDQEGDDVQTAAEEVLADGDTLDFEDDTVQSSGPRAGGEELDEGVAKDNAKIDGATQSSPAEPKSEDADRCTLPEHESPSQDISDACEAESTERCEMSEHPSQTVRKALDSNSLENDDLSAPGREPGHFNPESREDTRGGNEKGKSKEDCTMS [LRRFIP1] | -2.05 | -2.56 | 58.7 |  | 0.265 | 0.0557 |
| MTSRFGKTYSRKGGNGSSKFDEVFSNKRTTLSTKWGETTFMAKLGQKRPNFKPDIQEIPKKPKVEEESTGDPFGFDSDDESLPVSSKNLAQVKCSSYSESSEAAQLEEVTSVLEANSKISHVVVEDTVVSDKCFPLEDTLLGKEKSTNRIVEDDASISSCNKLITSDKVENFHEEHEKNSHHIHKNADDSTKKPNAETTVASEIKETNDTWNSQFGKRPESPSEISPIKGSVRTGLFEWDNDFEDIRSEDCILSLDSDPLLEMKDDDFKNRLENLNEAIEEDIVQSVLRPTNCRTYCRANKTKSSQGASNFDKLMDGTSQALAKANSESSKDGLNQAKKGGVSCGTSFRGTVGRTRDYTVLHPSCLSVCNVTIQDTMERSMDEFTASTPADLGEAGRLRKKADIATSKTTTRFRPSNTKSKKDVKLEFFGFEDHETGGDEGGSGSSNYKIKYFGFDDLSESEDDEDDDCQVERKTSKKRTKTAPSPSLQPPPESNDNSQDSQSGTNNAENLDFTEDLPGVPESVKKPINKQGDKSKENTRKIFSGPKRSPTKAVYNARHWNHPDSEELPGPPVVKPQSVTVRLSSKEPNQKDDGVFKAPAPPSKVIKTVTIPTQPYQDIVTALKCRREDKELYTVVQHVKHFNDVVEFGENQEFTDDIEYLLSGLKSTQPLNTRCLSVISLATKCAMPSFRMHLRAHGMVAMVFKTLDDSQHHQNLSLCTAALMYILSRDRLNMDLDRASLDLMIRLLELEQDASSAKLLNEKDMNKIKEKIRRLCETVHNKHLDLENITTGHLAMETLLSLTSKRAGDWFKEELRLLGGLDHIVDKVKECVDHLSRDEDEEKLVASLWGAERCLRVLESVTVHNPENQSYLIAYKDSQLIVSSAKALQHCEELIQQYNRAEDSICLADSKPLPHQNVTNHVGKAVEDCMRAIIGVLLNLTNDNEWGSTKTGEQDGLIGTALNCVLQVPKYLPQEQRFDIRVLGLGLLINLVEYSARNRHCLVNMETSCSFDSSICSGEGDDSLRIGGQVHAVQALVQLFLERERAAQLAESKTDELIKDAPTTQHDKSGEWQETSGEIQWVSTEKTDGTEEKHKKEEEDEELDLNKALQHAGKHMEDCIVASYTALLLGCLCQESPINVTTVREYLPEGDFSIMTEMLKKFLSFMNLTCAVGTTGQKSISRVIEYLEHC [WAPL] | 0.873 | 2.77 | 48.1 | 49.9 | -0.00224 | -0.133 |
